Measurements published in patent publication US20240026407A1, “MODIFICATION OF SAPONINS” (GLAXOSMITHKLINE BIOLOGICALS SA, priority 2020, published 2024).

B1: 1068 (protein, listed as Pedobacter heparinus)
chain: MINQIFKFSFFALNLLAWYSFTAKSQDLKVFDKATSWITCDKAQDQSNSWIAFRKVVQLDEKPVKALLDISVDSKYWLYINEKLVVFEGGLKRGPNPDDTYYDEADLTEYLKAGTNTIAVLLWYFGKNGFSHHSSGRAGMFFQLDMDKQGKICSDRSWKCSVVPAYLNVYSGDQPNYRLAESNVIYDARLALGDWTSASYNDKTWRNPFVVGPAGCMPWNKLVKRPIPQWKDYGIVNFNLNFPFNATGDTIKVKLPYNAQFTPYLKVEATAGKTIEMFTDNYSGGSENNVRAEYITKTGIQEYESFGWMNGHVMMFVIPKGAKVLSLGYRETGYHTTFAGSFNCNDAFYNKLWEKSSRTLYVNMRDSYMDCPDRERAQWWGDEVTEMTQSFYALDPDANLLAKKGIDELTGWQRSDGVLFSPIPAGNFDLELPVQMLTSVGYYGFWTYYYYTGDLETIRAAYPSIRKYLSLWEMDKNGLVISRTGGWNWGDWGKNVDIDLMSNAWYYLACKGYLEMSKTLNHAEEIKWAENQMSVMKKSFDTRFWTGKAYRSPDYKGQTDDRSNALAVLAGLTAPAKYPLLKDVFLTEEHSSPYMEKYVLEALFKMGYADIALERLKKRYTAMVDSELTTLWEGWKIGVNGYGGGSYNHAWSGGGLILLSRFVAGIEPASPGYETVKIAPQMGSLINCSATVSSVAGLIAVKNTFTNEKEFNQLIESPSPLKIYFPFEVYRIKKIRVNNKKLSEALMLKFKNEGKLELSKGKYKLTVNIN
B2: 1009 (protein)
chain: MFKILRPIGFLAALLLLTGEMVMGQKSTQIISPSVFQNPPSTYGIRCWWWWLNGNVDKEVITRDLEEMKAKGFSGACLFDAGGAEQRGNAQVPAGPMFGSPQWRELYIHAMREADRLGLVMSMSIQSGWNLGGPDITAEESAKQVAFSQVQVKGNTRISQELPMPKTHHDFYRDIVVLAIPTKVFANRPPIRDFENKAATREVGASVPETRPLLTDIPGTPGEEDASKKQVLNITRHFKNGKLEWRAPAGEWTVLRFGYTATDAEVSTSSGDWQGLVIDYMSEKAFNRYWDTNVEPLLKAIGPLAGKTLRYLQTDSFEAGGMNWTDGFEKEFIKHRGYDPIPYLPVLAGKIIDSREVSNRFLSDLRKTLADLIAEKHYGVFSKRSAAYGIGIQPESAGPHAGPFDGLKNYGYSEIMMSEFWSPSPHRPRPIDRFFVKQAGSAAKIHNKKLVGAESFTTIGPHWNDVMWSDMKPSVDHEFSAGLNLVYLHTFTASPKAMGIPGQEYFAGTHFNPNVTWWNQSTAFIQYLTRCQYLLQSGTSVADVLYYYGDHSPNLGRLKEDDPAKALPGFDYDLINEDRLMELQAKDGKIFLPHGVSYRVLVLPDHKTLSLKALQKVEALVKEGASVIGSKTVTTASLVKYPASEQTVRQIADGLWGTGNEATGSRNVGKGTIAWGITAADFLRSKGVHFDMEITARETGSRYDYIHREDTGADFYFISSQNRAASKMTAAFRMTGKQPELWNPVTGETRPATSFYQKDGKTYIPLEFDPYGSVFVVFRDDIAKDQNGSAASNFVHLETATTLHGSWDVAFDPAWGGPAAVVFNELVSWPDRNEEGIKYYSGKAVYSKKFDASQDVAESKQVFLDLGEVKDIGIAKVTLNGKDLGILWAPPLRVPVGGVLKEKDNVLQIEVVNTWRNRLIGDRTKPVEKRFTKTNVKVLETWQLTPSGLLGPVRLLTGSEQ
modifications: Dyadobacter fermentans
B3: 999 (protein, listed as Prevotella ruminicola)
chain: MRKFLTIICVACCYASATFAQAWPQPKPEAKPGTRWWWLGSAVNQRDLQWNLQEYARAGIGAVEITPIYGVKGNDANNIAYLSPQWMQALQSVQDIARPLGIEVDMNCGTGWPFGGPHISLDQAACRAIIKDTIINGKHQYEVEIGHTKQKVKRAAPGGEGWVVDHFDRNAVAHYLDRFEQAFATSGVPYPHTFFNDSYEVYKADWTPTLFDEFQKRRGYDLRTKLPELLGKVDDGNQTLADYRETLSDMLLENFTQQWVAWAHKHGVKVRNQAHGSPANLLDLYAAVDIPEIEGFGLSEFGIKGLRTDPGKTRKNDSDVSMLKYASSAAHVMGKPFTSSETFTWLTEHFRTSLSQMKPDLDLMFTCGVNHVYFHGSCYTPQNAAWPGWKFYASVDMSPTNSIWRDAPFLMKYIERSQSFLQLGEPDNDFLVYLPVRDMWHQRDNNNTLLMQFDIHSMAKKAPQFIRSILTIDSLGYDCDYISDRQLAKVRMQDGMLVTEGGTRYKALIIPSGTTIDASLQAQINRLNAYVIRGEQAADMAKFAKAEQMKTTYGLRAIRRHTADGWHYFIVNLTPKDITGDVTLAVPFESATWFNPMNGDIQPAEVHNGQLHIALKSGESRILQTSNQPSTNITTTASGTEEITLQGPWVLSFTDESPRVEGTFKLNKLQTWETLSDSAAVTMGTGVYTTSIKLSAQQAKQHWQIDLGDVRESARVYINSQFVGCAWAVPFILDCGNTLHKGKNEIRIEVTNLPANRIAELDRKGVQWRKFNEINVVDINYKNTTYADWKPVPSGLNTTVKLVR
B4: 1021 (protein, listed as Paenibacillus sp.)
chain: MLQPYAPAIKNYYSAIGIDTPKPIFVWKLSSPLRNQKQTHYRITVAENAESLEEENNLLWDSGKVASDEQLGVMYKGSPLESTSRYCWRVAIWDSSGQSLWSEVQYFITGYLNSEHWSAKWIGDGSDAPFYARYEFDLNKKVKQAFALVSGLGQFKFYMNGRQVGDHEMDPGWTNYHKSVQYVGFDITDHLQSGKNAVGLHVGNGFFAGASGGRHFYTMDKGYEPYGDQLVAIGEWHIEFEDGSRIILRTGEEGWKVHESATTLANVYGSENFDARLYPDGYHVPGFDDSGWKPAQLLKPPAGNLVQQNQPPVKVKQVYDTLSVAEPLPGVYVFDLGQNMAGMFEIYASGPAGSKVIIKPGELMREDGTIATPWDIVTYSEFILAGTGEVEVWKPDFSYYGARWVQIEGCTRDEADTGRPMIHDVKGHFITSASQDTGTLSTDDVRIDKLADIITKAIESNLQSVHTDCPTIEKLGWLEASALMGPSIVYVKQAEELFLKIVRDMMEAQTEEGLIPDIAPEYSLFPDGFRDSIAWGIALLMVPDLLLERYNNFTAIEVAYPAMKRYMDYLKSKEIHDGLIGHGLGDWGIQPQTGGDYIENVETAFYYEGYRLMAKFAGILGFTDELEDYSAEAERIKLNYNKQLLHSLPENSPRYAYCKLGGQFDPANQVVQAIPLAFNLVPEEQLHNVEHALLQAVASRQFHSGEIGLRYLFLALSRLNRNDIVLDMMMQPEHPSYIRFVERGETSLPEFWTDEARSRNHDMMGHILEWLYKELLGISSASGAYKEILIAPFRSGRVKRVKGVHHSIRGEIGVEFSHSAEEIILNVQIPANTTATLQIPLLHGESQLYERGTRVLYEPFNQGAQIYARLKIGSGSYSYVNRV
B5: 1025 (protein, listed as Bacteroides xylanisolvens)
chain: MKKDYMKYQQNSKREEKSKFITNQLTNMAHISIRSYLYLLGTTLFSCAPQELKTPFELKCENIPVPVGVDTQTPRLSWKLPLLEEDSINRVEIWLSTDSTQLSGRQSGYWNKSIIGAPIRVSYDGQPLDSYTTYYWKIGYQTSSKQKTTFSPISSFTTGCLSPDNWKGKWITDKHDITYRPAPYYRKSFQLDKTIEQALLTIASAGLHELSVNGQRAGNHFLDPMYTHFDKRILSVTHDVTSLLSLGENVIGVQLGNGWYNHQSTAVWFFDKASWRNRPKFTAQLHLRYTDGTTEYLGTDSTWQTTDSPVIFNSIYTAEHYDAQKELAGWDSPGFNATGWYHAQETESPTETIKSQVMHPIRETARYTATQCKKINDSCYVYHFPKNIAGVTELKVKGKKGTKLRLKHGELLDKNGMVNMANIDYHYRPTDDSDPFQTDIVILSGKQDRFMPKFNYKGFQFVEVSSSAPIQLSDENLIAVEMHSDIPAIGYWSSSSDLLNKIWKATNSSYLANLFGYPTDCPQREKNGWTGDAHITIETGLYNFDGISIYEKWMNDFCDEQKDNGILPCIIPTSVWGYDWANGVDWTSAVAIIPWEIYRFYGDTTLLRRMYGPIKKYVSYIESISTNHLTDWGLGDWVPVRSKSNITLTSSIYYYTDVCILAKAARLFGYAEDASYYNTLAQKIKEAINTSFLNKETGIYAEGTQTELAMPLYWGIVPEEDKKKVAARLHELVEKDDYHLDVGLLGSKALLSAMSDNGYAETAYKVASQDTYPSWGVLDQTRCYNST
B6: 1072 (protein, listed as Kribbella flavida)
chain: MAEPVAPDGWTSGGPLAVAKLTAEYAEEPHGTDEVRPRLAWIATAPGYGATQSAYQVLVASQPELLSPEQADVWDSGQVGSDAVQVAYDGPALAARTRYHWAVRLWDGQGRAGRWSRPSWFETALLDEGFGAARWIGASTEAAPLLRRPFELTGPVRRARLYASGLAYAVLRVNGQQVGDAVLDPGFTNYDRTVLYVTHDVTELLQAGENVLGAELGRGFFGMTTPNVWRWHQAPWTGDPRLLARLVIDHEDGTTTELVSDGSWRVTSGPTVSDSLYAGERYDARLAQPGWDAPGFDDAAWSPAVELTAPQGTLRAQAHEPIRVVEEVAPVAISSPRAGVQVIDFGRTTAGWAKLRVEAPAGSRFTLVYGETLTADGQVEATNRHVDGDRFQQDEYVAAGHEIEQWEPRFSYKGFRYLQVTGDAEAEVVLKVVHSDVRAASRFDSDVEVYSWLEQAMRRTVLNNLHGIPTDTPIFEKNGWTGDAQVGAPTMASLVDLARFFTKWLDDLRDSQLPDGRLPVIVPSAGWGYAELAPATEWSTVYPFLLREMHRWYGDTRVLADHWDAVLRYLDWELERVEDGLSISVLGDWLPPGYPDGPPPEDSRLTATAYLHRAVTAVVEIGELIGETSELERLRKAAAELADGLNREFLDREAGLYRTAADPDYRQTSNAVPLAFGLVPEDQVPRVVANLVADVQARDFHLNTGCLGVGVLLPVLTQYGHADVAAKLAQQRTYPSWGYWLEEGADTLWEMWEADTRSRNHYFHGTVVQWLLESVAGLRNVGNGWQRIVVRPDARTGSTSAALRTDTVRGRVAASWRLVGRVLQLEVQVPVGCVAEVHVPSEAAADVTAVPSPYAGEPTRSDGYTVYTVPSGQWHFTSRTA

test: Experiment 6-1: screening of rhamnosidases for derhamnosylation of saponins in treated bark extract (2%), QS-17 2310 to QS-18 2164 (PAR %); type: biochemical, Quillaja saponaria; details: TBE 2%, pH 7.5, 30 degC, 18 h; TIC peak area ratio percent, LCMS/MS; negative controls 3.061, 2.429

Row | Molecule | Peak57 (PAR %) [%]
1 | B1 | 3.156
2 | B2 | 3.762
3 | B3 | 2.714
4 | B4 | 3.148
5 | B5 | 2.933
6 | B6 | 3.245

test: Experiment 6-1: screening of rhamnosidases for derhamnosylation of saponins in treated bark extract (2%), QS-17 2296 to QS-18 2150 (PAR %); type: biochemical, Quillaja saponaria; details: TBE 2%, pH 7.5, 30 degC, 18 h; TIC peak area ratio percent of rhamnosylated starting saponin to derhamnosylated product, LCMS/MS; negative controls 4.876, 5.225

Row | Molecule | QS-17 (PAR %) [%]
7 | B1 | 5.521
8 | B2 | 5.408
9 | B3 | 5.614
10 | B4 | 5.476
11 | B5 | 5.495
12 | B6 | 5.457

test: Experiment 6-1: screening of rhamnosidases for derhamnosylation of saponins in treated bark extract (2%), desglucosyl-QS-17 2134 to QS-21 1988 (PAR %); type: biochemical, Quillaja saponaria; details: TBE 2%, pH 7.5, 30 degC, 18 h; TIC peak area ratio percent, LCMS/MS; negative controls 2.719, 2.158

Row | Molecule | Peak75 (PAR %) [%]
13 | B1 | 2.370
14 | B2 | 2.379
15 | B3 | 2.571
16 | B4 | 2.296
17 | B5 | 2.330
18 | B6 | 2.462

test: Experiment 6-1: specificity of rhamnosidases towards other rhamnose residues (C3 saccharide rhamnose, C28 saccharide rhamnose); type: biochemical, Quillaja saponaria; details: TBE 2%, pH 7.5, 30 degC, 18 h; LCMS/MS; negative controls 0.18, 0.17

Row | Molecule | ratio PP/QS-21
19 | B1 | 0.17
20 | B2 | 0.16
21 | B3 | 0.16
22 | B4 | 0.16
23 | B5 | 0.18
24 | B6 | 0.17
